This is an account of results in article PMC9160799, “PET Imaging of Acidic Tumor Environment With ^89Zr-labeled pHLIP Probes” (Frontiers in Oncology, 2022).

Series [1] has as its system kidney uptake of [89Zr]Zr-DFOsqa-Lys-Var3. The experiment in a line: Kidney-blocking study (PET imaging). The following applies: drug IV 30 min before 7.4 MBq [89Zr]Zr-DFOsqa-Lys-Var3 (1.2 nmol); two doses per drug, n=2 each; PET 24 h p.i. vs control mice. The class given is in vivo, healthy female SCID mice. The method, then: (§1) The imaging and biodistribution studies were performed with male (RM-1 model) and female (4T1 model) athymic nude mice and the kidney-blocking experiments were performed with female SCID mice received from Charles River Laboratories (Stone Ridge, NY). After arrival, the mice were kept in the MSK vivarium for one week before any experimental handling was performed. The animals were allowed free access to water and food, and all animal care and experimental procedures were approved by the Institutional Animal Care and Use Committee (IACUC). For the subcutaneous allografts, a 1-to-1 ratio of Corning Matrigel Matrix and the cell solution was prepared and stored on ice for the injections. Each mouse received a subcutaneous injection of 100 µL (50 µL cell solution, viability > 90%, + 50 µL Matrigel) into the flank on the level of the right shoulder. The injections were performed under anesthesia (2% isoflurane, Baxter Healthcare, Deerfield, IL, USA). Palpable tumors of similar size (100–300 mm^3) developed 5–8 days after grafting.
PET images were obtained at the respective timepoints with the mice under anesthesia (2% isoflurane) on a microPET Focus 120 (Concorde Microsystems) or an Inveon PET-CT (Siemens) rodent scanner. All images were analyzed using the Medical Imaging Data Examiner Amide (version 0.9.0) or the Inveon reconstruction software suite. The counting rates in the reconstructed images were converted to percent of injected dose per weight (%ID/g) by applying a system-specific calibration factor. At the final timepoint, the remaining mice were euthanized (by CO2 asphyxiation, followed by cervical dislocation) and their tumors were resected for histological analysis.
Additional experiments were performed to investigate the influence of various kidney-uptake blockers and diuretics. Healthy female SCID mice received a “blocking agent” 30 minutes prior to the injection of [^89Zr]Zr-DFOsqa-Lys-Var3 (7.4 MBq/200 µCi, 1.2 nmol). […] The experimental set-up can be found in Table S6 .
Table S6. Summary of the kidney-blocking study. Healthy female SCID mice (2 mice per experiment/ dosage + 2 control mice without treatment, total of 22 mice) received a blocking agent intravenously 30 minutes prior to the injection of 7.4 MBq/200 µCi [89Zr]Zr-DFOsqa-Lys-Var3 (1.2 nmol pHLIP).
The drug dose was calculated as weight of drug (mg) per weight of mouse (kg). A potential kidney […]
calibrated images to the control mice (24 hours post injection). No drug led to a significant reduction […]
drug (IV 30 min before dose [mg/kg] effect on kidney mechanism of action [89Zr]Zr-pHLIP) (n=2) uptake […]
and water from the body; acts as a diuretic […]
organic anion transporter; blocks the uptake of organic anions […]
tubule via inhibition of the Na/Cl symporter; acts as a diuretic […]
increased – serum levels decreased

A short description of series [2]: Post-mortem biodistribution, RM-1 tumor model. The class given is in vivo, male athymic nude mice. The following applies: male, athymic nude, mouse, iv, 1.2 nmol, total radioactivity; for tissue uptake at 48 h: RM-1, male athymic nude mice, 48 h p.i., i.v. 1.2 nmol, 7.4 MBq, gamma counting, mean ± S.D., n=4. The protocol:
The media were provided by the MSK Media Preparation Core. […] Another aliquot was diluted with the medium so that 50 µL contained 1×10^6 cells.
as §1, with “USA).” for “USA). Palpable tumors of similar size (100–300 mm^3) developed 5–8 days after grafting.”
The mice were intravenously injected (tail vein) with the radiolabeled pHLIP conjugates (1.2 nmol, 7.4 MBq/200 µCi, 100 µL, in sterile filtered PBS). The activity of the syringe prior to injection and after injection was used to determine the percent of injectate administered.
For the biodistribution studies the tumor-bearing mice were randomized before the injections. Only mice with suitable tumors (150–300 mm^3) were utilized. An exception was made for the 120-hour timepoint, for which only mice with smaller tumors (150 mm^3) were selected. The mice were grouped in cohorts of four. At the respective timepoint, the mice were euthanized (by CO2 asphyxiation, followed by cervical dislocation) and their blood was collected by cardiac puncture as a terminal procedure, followed by quick removal of the tumors. After this, the other organs/samples were collected. […] The exact activities of all samples of one mouse were determined by an Capintec® CRC-55tR dose calibrator. These decay-corrected measurements were used to determine a calibration factor and calibrate all counts to the corresponding activities. Activity concentrations were calculated as percentage injected dose per tissue weight (%ID/g wet tissue). All data was processed and visualized using Origin 8.5.

“Also recorded” adds a separate entry of the source. Like-named read-outs stand apart in the source and are kept apart here. Square brackets hold non-standard residues; d marks the D form. Peptide text beside a SMILES is read from it. * marks the point of attachment. X1 = CC(=O)N(O)CCCCCNC(=O)CCC(=O)N(O)CCCCCNC(=O)CCC(=O)N(O)CCCCCNC(=O)CCC(=O)N(O)CCCCCNC(=S)Nc1ccc(NC(=S)*)cc1

Consider `CN(C)c1nc(N)c(C(=O)NC(=N)N)nc1Cl` [5-(N,N-dimethyl)amiloride], for which the “effect on kidney uptake” value in series [1] was “not significant; also recorded: none of these drugs led to a significant reduction of kidney uptake”.
Take `CC[C@@H](C)[C@@H](NC(=O)[C@H]1CCCN1C(=O)[C@@H](CC(N)=O)NC(=O)[C@@H](CCC(N)=O)NC(=O)[C@@H](CCC(=O)O)NC(=O)[C@@H](CCCCNC(=S)Nc1ccc(NC(=S)NCCCCCN(O)C(=O)CCC(=O)NCCCCCN(O)C(=O)CCC(=O)NCCCCCN(O)C(C)=O)cc1)NC(=O)[C@@H](C)NC(C)=O)C(=O)N[C@H](Cc1ccc(O)cc1)C(=O)N[C@H](Cc1c[nH]c2ccccc12)C(=O)N[C@H](C)C(=O)N[C@H](CCCNC(=N)N)C(=O)N[C@H](Cc1ccc(O)cc1)C(=O)N[C@H](C)C(=O)N[C@H](CC(=O)O)C(=O)N[C@H](Cc1c[nH]c2ccccc12)C(=O)N[C@H](CC(C)C)C(=O)N[C@H](Cc1ccccc1)C(=O)N[C@@H](C(=O)N[C@@H](C(=O)N1CCC[C@@H]1C(=O)N[C@H](CC(C)C)C(=O)N[C@H](CC(C)C)C(=O)N[C@H](CC(C)C)C(=O)N[C@H](CC(C)C)C(=O)N[C@H](CC(=O)O)C(=O)N[C@H](CC(C)C)C(=O)N[C@H](C)C(=O)N[C@H](CC(C)C)C(=O)N[C@H](CC(C)C)C(=O)N[C@@H](C(=O)N[C@H](CC(=O)O)C(=O)N[C@H](C)C(=O)N[C@H](CC(=O)O)C(=O)N[C@H](CCC(=O)O)C(=O)NCC(=O)N[C@@H](C(=O)NCC(=O)O)[C@H](C)O)C(C)C)[C@H](C)O)[C@H](C)O` (89Zr complex, metal not drawn) [DFO-Lys-WT]: the tissue uptake at 48 h turned out to be 0.1 ± 0.03 %ID/g in series [2] (blood, read-out: Blood uptake) and 2.3 ± 0.5 %ID/g in series [2] (tibia, read-out: Tibia uptake).
As for `CC(=O)N[C@H](C)C(=O)N[C@H](CCCCNC(=S)Nc1ccc(NC(=S)NCCCCCN(O)C(=O)CCC(=O)NCCCCCN(O)C(=O)CCC(=O)NCCCCCN(O)C(=O)CCC(=O)NCCCCCN(O)C(C)=O)cc1)C(=O)N[C@H](CC(=O)O)C(=O)N[C@H](CC(=O)O)C(=O)N[C@H](CCC(N)=O)C(=O)N[C@H](CC(N)=O)C(=O)N1CCC[C@@H]1C(=O)N[C@H](Cc1c[nH]c2ccccc12)C(=O)N[C@H](CCCNC(=N)N)C(=O)N[C@H](C)C(=O)N[C@H](Cc1ccc(O)cc1)C(=O)N[C@H](CC(C)C)C(=O)N[C@H](CC(=O)O)C(=O)N[C@H](CC(C)C)C(=O)N[C@H](CC(C)C)C(=O)N[C@H](Cc1ccccc1)C(=O)N1CCC[C@@H]1C(=O)N[C@@H](C(=O)N[C@H](CC(=O)O)C(=O)N[C@@H](C(=O)N[C@H](CC(C)C)C(=O)N[C@H](CC(C)C)C(=O)N[C@H](CC(C)C)C(=O)N[C@H](CC(=O)O)C(=O)N[C@H](CC(C)C)C(=O)N[C@H](CC(C)C)C(=O)N[C@H](Cc1c[nH]c2ccccc12)C(=O)N[C@H](C)C(=O)O)[C@H](C)O)[C@H](C)O` [DFO*-Lys-Var3] (Ac-[dA][dK](X1)[dD][dD][dQ][dN][dP][dW][dR][dA][dY][dL][dD][dL][dL][dF][dP][dT][dD][dT][dL][dL][dL][dD][dL][dL][dW][dA]-OH; C-terminus assumed), the tissue uptake at 48 h in series [2] (in vivo, read-out: Tibia uptake) was determined as 1.1 ± 0.5 %ID/g.
`CC(=O)Nc1nnc(S(N)(=O)=O)s1` [acetazolamide]: the “effect on kidney uptake” value in series [1] is “not significant; also recorded: none of these drugs led to a significant reduction of kidney uptake”.
`CC[C@@H](C)[C@@H](NC(=O)[C@H]1CCCN1C(=O)[C@@H](CC(N)=O)NC(=O)[C@@H](CCC(N)=O)NC(=O)[C@@H](CCC(=O)O)NC(=O)[C@@H](CCCCNC(=S)Nc1ccc(NC(=S)NCCCCCN(O)C(=O)CCC(=O)NCCCCCN(O)C(=O)CCC(=O)NCCCCCN(O)C(C)=O)cc1)NC(=O)[C@@H](C)NC(C)=O)C(=O)N[C@H](Cc1ccc(O)cc1)C(=O)N[C@H](Cc1c[nH]c2ccccc12)C(=O)N[C@H](C)C(=O)N[C@H](CCCNC(=N)N)C(=O)N[C@H](Cc1ccc(O)cc1)C(=O)N[C@H](C)C(=O)N[C@H](CC(=O)O)C(=O)N[C@H](Cc1c[nH]c2ccccc12)C(=O)N[C@H](CC(C)C)C(=O)N[C@H](Cc1ccccc1)C(=O)N[C@@H](C(=O)N[C@@H](C(=O)N1CCC[C@@H]1C(=O)N[C@H](CC(C)C)C(=O)N[C@H](CC(C)C)C(=O)N[C@H](CC(C)C)C(=O)N[C@H](CC(C)C)C(=O)N[C@H](CC(=O)O)C(=O)N[C@H](CC(C)C)C(=O)N[C@H](C)C(=O)N[C@H](CC(C)C)C(=O)N[C@H](CC(C)C)C(=O)N[C@@H](C(=O)N[C@H](CC(=O)O)C(=O)N[C@H](C)C(=O)N[C@H](CC(=O)O)C(=O)N[C@H](CCC(=O)O)C(=O)NCC(=O)N[C@@H](C(=O)NCC(=O)O)[C@H](C)O)C(C)C)[C@H](C)O)[C@H](C)O` [DFO-Lys-WT]: the tissue uptake at 48 h is 0.03 ± 0.03 %ID/g in series [2] (in vivo, read-out: Brain uptake); 14.2 ± 1.2 %ID/g in series [2] (in vivo, read-out: Kidneys uptake); 14.8 ± 4.7 %ID/g in series [2] (in vivo, read-out: Liver uptake); 11.5 ± 0.4 %ID/g in series [2] (in vivo, read-out: Lungs uptake); 0.3 ± 0.08 %ID/g in series [2] (in vivo, read-out: Muscle uptake); 0.9 ± 0.4 %ID/g in series [2] (in vivo, read-out: Pancreas uptake). Further, the tissue uptake at 48 h in series [2] (in vivo, read-out: Skin uptake) was 1.5 ± 0.2 %ID/g; in series [2] (in vivo, read-out: Spleen uptake) it was 25.8 ± 5.5 %ID/g; in series [2] (in vivo, read-out: Tumor uptake) it was 1.6 ± 0.1 %ID/g. Also, in series [2] (tumor / muscle, RM-1 model, 48-hour timepoint, read-out: tumor-to-muscle uptake-ratio), the tissue to tissue ratio at 48 h is 5.5 ± 1.5.
